Source: article PMC4517634

Assays:
[1] = target: human cathepsin L (human)
[2] = target: human cathepsin G (human) (UniProt P08311)
human cathepsin G (human), sequence (P08311 21-244): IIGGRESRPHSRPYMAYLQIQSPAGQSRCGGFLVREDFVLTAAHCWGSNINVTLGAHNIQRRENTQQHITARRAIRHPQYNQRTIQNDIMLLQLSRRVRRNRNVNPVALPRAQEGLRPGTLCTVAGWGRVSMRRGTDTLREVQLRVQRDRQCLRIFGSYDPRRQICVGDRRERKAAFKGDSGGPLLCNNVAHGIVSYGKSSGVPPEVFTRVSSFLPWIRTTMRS

In the case of “recombinant His-tagged ANISERP protein (baculovirus system) (from UniProt F4MST7 1-397) (natural protein)”, the IC50 of inhibition of cathepsin L (0.83 nM) proteolytic activity on Z-Phe-Arg-AMC [1] is reported as 217 nM, the IC50 of inhibition of cathepsin G (0.33 nM) proteolytic activity on N-succinyl-Ala-Ala-Phe-AMC [2] is reported as 542 nM and the IC50 of inhibition of thrombin (74 nM) proteolytic activity on Boc-Val-Arg-AMC after 10 min at 37 °C with ANISERP (human thrombin (human)) is reported as 152 nM. For the same substance, the IC50 of inhibition of trypsin (54 nM) proteolytic activity on Boc-Gln-Ala-Arg-AMC (human trypsin (human)) was 173 nM.
